The target in test [1] is 8-arm-PEG-P1 (40 kDa). Kind of test: cell-based or functional assay.
Test [2] concerns the target 8-arm-PEG-P2 (20 kDa). Kind of test: cell-based or functional assay.

Chain of 8-arm-PEG-P2 (20 kDa) (peptide, as listed by the source): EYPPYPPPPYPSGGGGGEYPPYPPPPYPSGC

In turn, “C7 recombinant protein polymer (seven repeats of the CC43 WW domain) (designed binder)” showed a storage modulus G′ of the hydrogel 8P1-40k in test [1] of 3.9 Pa. In test [2], this substance returned a storage modulus G′ of the hydrogel 8P2-20k of 15 Pa.

For the origin of these results see US20150290329A1.
